Our source for the percent inhibition of the binding of L1 to VLA-5 values is paper PMC2120661.

For this test, the target named is VLA-5 integrin (alpha5 beta1), affinity-isolated from mouse thymocyte lysate (mouse (endogenous in thymocytes)) (UniProt P09055). As to the kind of experiment: ELISA.

The molecule CWRGDGRDLQERGDSDK [L1-RGD peptide] returned a percent inhibition of the binding of L1 to VLA-5 at 500 ug/ml peptide of 80%.
